B1: DAB3 (peptide)
peptide: RWCGAELCNSVTKKFRPGWRDHANPSTHHRTPPPSQSSPAETVESCLAKPHTENSFTNVWKDDKTLDRYANYEGCLWNATGVVVCTGDETQCYGTWVPIGLAIPENEGGGSEGGGSEGGGSEGGGTKPPEYGDTPIPGYTYINPLDGTYPPGTEQNPANPNPSLEESQPLNTFMFQNNRFRNRQGALTVYTGTVTQGTDPVKTYYQYTPVSSKAMYDAYWNGKFRDCAFHSGFNEDPFVCEYQGQSSDLPQPPVNAGGGSGGGSGGGSEGGGSEGGGSEGGGSEGGGSGGGSGSGDFDYEKMANANKGAMTENADENALQSDAKGKLDSVATDYGAAIDGFIGDVSGLANGNGATGDFAGSNSQMAQVGDGDNSPLMNNFRQYLPSLPQSVECRPFVFSAGKPYEFSIDCDKINLFRGVFAFLLYVATFMYVFSTFANILRNKES
notes: Assayed as M13 phage clone displaying the insert
B2: 5PAX7 (peptide)
peptide: RWGWERSPSDYDSDMDLGARRYATRTHRAPPRVLKAPLPAETVESCLAKPHTENSFTNVWKDDKTLDRYANYEGCLWNATGVVVCTGDETQCYGTWVPIGLAIPENEGGGSEGGGSEGGGSEGGGTKPPEYGDTPIPGYTYINPLDGTYPPGTEQNPANPNPSLEESQPLNTFMFQNNRFRNRQGALTVYTGTVTQGTDPVKTYYQYTPVSSKAMYDAYWNGKFRDCAFHSGFNEDPFVCEYQGQSSDLPQPPVNAGGGSGGGSGGGSEGGGSEGGGSEGGGSEGGGSGGGSGSGDFDYEKMANANKGAMTENADENALQSDAKGKLDSVATDYGAAIDGFIGDVSGLANGNGATGDFAGSNSQMAQVGDGDNSPLMNNFRQYLPSLPQSVECRPFVFSAGKPYEFSIDCDKINLFRGVFAFLLYVATFMYVFSTFANILRNKES
notes: as for B1
B3: 5PAX12 (peptide)
peptide: RGWKCEGSQAAYGDKDIGRSRGCGSITKNNTNHAHPSHGAVAKIAETVESCLAKPHTENSFTNVWKDDKTLDRYANYEGCLWNATGVVVCTGDETQCYGTWVPIGLAIPENEGGGSEGGGSEGGGSEGGGTKPPEYGDTPIPGYTYINPLDGTYPPGTEQNPANPNPSLEESQPLNTFMFQNNRFRNRQGALTVYTGTVTQGTDPVKTYYQYTPVSSKAMYDAYWNGKFRDCAFHSGFNEDPFVCEYQGQSSDLPQPPVNAGGGSGGGSGGGSEGGGSEGGGSEGGGSEGGGSGGGSGSGDFDYEKMANANKGAMTENADENALQSDAKGKLDSVATDYGAAIDGFIGDVSGLANGNGATGDFAGSNSQMAQVGDGDNSPLMNNFRQYLPSLPQSVECRPFVFSAGKPYEFSIDCDKINLFRGVFAFLLYVATFMYVFSTFANILRNKES
notes: as for B1
B4: PAX9 (peptide)
peptide: RWPSVGYKGNGSDTIDVHSNDASTKRSLIYNHRRPLFPAETVESCLAKPHTENSFTNVWKDDKTLDRYANYEGCLWNATGVVVCTGDETQCYGTWVPIGLAIPENEGGGSEGGGSEGGGSEGGGTKPPEYGDTPIPGYTYINPLDGTYPPGTEQNPANPNPSLEESQPLNTFMFQNNRFRNRQGALTVYTGTVTQGTDPVKTYYQYTPVSSKAMYDAYWNGKFRDCAFHSGFNEDPFVCEYQGQSSDLPQPPVNAGGGSGGGSGGGSEGGGSEGGGSEGGGSEGGGSGGGSGSGDFDYEKMANANKGAMTENADENALQSDAKGKLDSVATDYGAAIDGFIGDVSGLANGNGATGDFAGSNSQMAQVGDGDNSPLMNNFRQYLPSLPQSVECRPFVFSAGKPYEFSIDCDKINLFRGVFAFLLYVATFMYVFSTFANILRNKES
notes: as for B1
B5: PAX14 (peptide)
peptide: RTFENDGLGVGRSIQKKSDRWYASHNIRSHFASMSPAGKAETVESCLAKPHTENSFTNVWKDDKTLDRYANYEGCLWNATGVVVCTGDETQCYGTWVPIGLAIPENEGGGSEGGGSEGGGSEGGGTKPPEYGDTPIPGYTYINPLDGTYPPGTEQNPANPNPSLEESQPLNTFMFQNNRFRNRQGALTVYTGTVTQGTDPVKTYYQYTPVSSKAMYDAYWNGKFRDCAFHSGFNEDPFVCEYQGQSSDLPQPPVNAGGGSGGGSGGGSEGGGSEGGGSEGGGSEGGGSGGGSGSGDFDYEKMANANKGAMTENADENALQSDAKGKLDSVATDYGAAIDGFIGDVSGLANGNGATGDFAGSNSQMAQVGDGDNSPLMNNFRQYLPSLPQSVECRPFVFSAGKPYEFSIDCDKINLFRGVFAFLLYVATFMYVFSTFANILRNKES
notes: as for B1
B6: PAX15 (peptide)
peptide: SYCRVKGGGEGGHTDSNLARSGCGKVARTSRLQHINPRATPPSRAETVESCLAKPHTENSFTNVWKDDKTLDRYANYEGCLWNATGVVVCTGDETQCYGTWVPIGLAIPENEGGGSEGGGSEGGGSEGGGTKPPEYGDTPIPGYTYINPLDGTYPPGTEQNPANPNPSLEESQPLNTFMFQNNRFRNRQGALTVYTGTVTQGTDPVKTYYQYTPVSSKAMYDAYWNGKFRDCAFHSGFNEDPFVCEYQGQSSDLPQPPVNAGGGSGGGSGGGSEGGGSEGGGSEGGGSEGGGSGGGSGSGDFDYEKMANANKGAMTENADENALQSDAKGKLDSVATDYGAAIDGFIGDVSGLANGNGATGDFAGSNSQMAQVGDGDNSPLMNNFRQYLPSLPQSVECRPFVFSAGKPYEFSIDCDKINLFRGVFAFLLYVATFMYVFSTFANILRNKES
notes: as for B1
B7: PAX16 (peptide)
peptide: SWTRWGKHTHGGFVNKSPPGKNATSPYTDAQLPSDQGPPAETVESCLAKPHTENSFTNVWKDDKTLDRYANYEGCLWNATGVVVCTGDETQCYGTWVPIGLAIPENEGGGSEGGGSEGGGSEGGGTKPPEYGDTPIPGYTYINPLDGTYPPGTEQNPANPNPSLEESQPLNTFMFQNNRFRNRQGALTVYTGTVTQGTDPVKTYYQYTPVSSKAMYDAYWNGKFRDCAFHSGFNEDPFVCEYQGQSSDLPQPPVNAGGGSGGGSGGGSEGGGSEGGGSEGGGSEGGGSGGGSGSGDFDYEKMANANKGAMTENADENALQSDAKGKLDSVATDYGAAIDGFIGDVSGLANGNGATGDFAGSNSQMAQVGDGDNSPLMNNFRQYLPSLPQSVECRPFVFSAGKPYEFSIDCDKINLFRGVFAFLLYVATFMYVFSTFANILRNKES
notes: as for B1
B8: S15 (peptide)
peptide: RSGAYESPDGRGGRSYVGGGGGCGNIGRKHNLWGLRTASPACWDAETVESCLAKPHTENSFTNVWKDDKTLDRYANYEGCLWNATGVVVCTGDETQCYGTWVPIGLAIPENEGGGSEGGGSEGGGSEGGGTKPPEYGDTPIPGYTYINPLDGTYPPGTEQNPANPNPSLEESQPLNTFMFQNNRFRNRQGALTVYTGTVTQGTDPVKTYYQYTPVSSKAMYDAYWNGKFRDCAFHSGFNEDPFVCEYQGQSSDLPQPPVNAGGGSGGGSGGGSEGGGSEGGGSEGGGSEGGGSGGGSGSGDFDYEKMANANKGAMTENADENALQSDAKGKLDSVATDYGAAIDGFIGDVSGLANGNGATGDFAGSNSQMAQVGDGDNSPLMNNFRQYLPSLPQSVECRPFVFSAGKPYEFSIDCDKINLFRGVFAFLLYVATFMYVFSTFANILRNKES
notes: as for B1
B9: S21 (peptide)
peptide: SPRSFWPVVSRHESFGISNYLGCGYRTCISGTMTKSSPIYPRHSAETVESCLAKPHTENSFTNVWKDDKTLDRYANYEGCLWNATGVVVCTGDETQCYGTWVPIGLAIPENEGGGSEGGGSEGGGSEGGGTKPPEYGDTPIPGYTYINPLDGTYPPGTEQNPANPNPSLEESQPLNTFMFQNNRFRNRQGALTVYTGTVTQGTDPVKTYYQYTPVSSKAMYDAYWNGKFRDCAFHSGFNEDPFVCEYQGQSSDLPQPPVNAGGGSGGGSGGGSEGGGSEGGGSEGGGSEGGGSGGGSGSGDFDYEKMANANKGAMTENADENALQSDAKGKLDSVATDYGAAIDGFIGDVSGLANGNGATGDFAGSNSQMAQVGDGDNSPLMNNFRQYLPSLPQSVECRPFVFSAGKPYEFSIDCDKINLFRGVFAFLLYVATFMYVFSTFANILRNKES
notes: as for B1
B10: S22 (peptide)
peptide: SSSSDWGGVPGKVVRERFKGRGCGISITSVLTGKPNPCPEPKAAAETVESCLAKPHTENSFTNVWKDDKTLDRYANYEGCLWNATGVVVCTGDETQCYGTWVPIGLAIPENEGGGSEGGGSEGGGSEGGGTKPPEYGDTPIPGYTYINPLDGTYPPGTEQNPANPNPSLEESQPLNTFMFQNNRFRNRQGALTVYTGTVTQGTDPVKTYYQYTPVSSKAMYDAYWNGKFRDCAFHSGFNEDPFVCEYQGQSSDLPQPPVNAGGGSGGGSGGGSEGGGSEGGGSEGGGSEGGGSGGGSGSGDFDYEKMANANKGAMTENADENALQSDAKGKLDSVATDYGAAIDGFIGDVSGLANGNGATGDFAGSNSQMAQVGDGDNSPLMNNFRQYLPSLPQSVECRPFVFSAGKPYEFSIDCDKINLFRGVFAFLLYVATFMYVFSTFANILRNKES
notes: as for B1

These binders were tested against T1, D2H receptor domain (human D2H transporter, amino acid residues 387-685), His-tag fusion protein (human, UniProt Q07837 387-685) (assay: phage ELISA, plate coated with D2H domain).
T1 construct: purified under denaturing conditions; also called recombinant D2H; not shown: poly-histidine tag (pET vector) at the NH2-terminal end
T1 sequence: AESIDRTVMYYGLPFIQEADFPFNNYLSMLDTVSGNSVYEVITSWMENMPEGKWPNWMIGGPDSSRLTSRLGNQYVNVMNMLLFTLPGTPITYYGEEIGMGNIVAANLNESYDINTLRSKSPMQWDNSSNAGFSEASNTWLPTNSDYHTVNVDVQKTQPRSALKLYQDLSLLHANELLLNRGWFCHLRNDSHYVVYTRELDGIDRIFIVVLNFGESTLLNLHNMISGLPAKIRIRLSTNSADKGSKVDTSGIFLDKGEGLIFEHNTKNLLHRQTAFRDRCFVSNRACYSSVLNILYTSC
Procedure: (§1) 6.6. Receptor ELISA Procedure 96 well plates were coated overnight with GIT receptor, BSA and, optionally, IDE (insulin degrading enzyme, an irrelevant His-fusion protein)or hTF. The plates were blocked for one hour with 0.5% BSA-PBS. After clarification, the amplified phage were diluted 1:100 in […] plus 0.05% Tween 20 in PBS and added to the plates. Following incubation of the plates on a rotator for 1 to 2 hours, the plates were washed 5 times with 1% BSA plus 0.05% Tween 20 in PBS. […] After the plates were washed 5 times, as described above, TMB substrate was added to the wells. The plates were read at 650 nm absorbance.
B1 showed an OD of 0.406 OD.

What follows are binders tested against T2, hPEPT1 receptor domain (human PEPT1, amino acid residues 391-571), His-tag fusion protein (human, UniProt P46059 391-571) (assay: phage ELISA, plate coated with hPEPT1 domain).
T2 construct: purified under denaturing conditions; also called recombinant hPEPT1; not shown: poly-histidine tag (pET vector) at the NH2-terminal end
T2 sequence: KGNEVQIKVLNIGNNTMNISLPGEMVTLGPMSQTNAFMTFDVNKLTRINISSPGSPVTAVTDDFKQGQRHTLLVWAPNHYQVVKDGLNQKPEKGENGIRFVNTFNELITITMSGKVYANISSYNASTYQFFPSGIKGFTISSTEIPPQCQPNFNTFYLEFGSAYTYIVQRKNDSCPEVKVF
Procedure: as §1
B2 gave an OD of 0.171 OD. B3 was tested, and the OD was 0.227 OD. For B4, the OD was 0.312 OD. In the case of B5, the OD is reported as 1.1 OD. B6 gave an OD of 0.301 OD. B7 was tested, and the OD was 0.648 OD.

These binders were tested against T3, hSI receptor domain (human sucrase-isomaltase complex, amino acid residues 272-667), His-tag fusion protein (human, UniProt P14410 272-667) (assay: phage ELISA, plate coated with hSI domain).
T3 construct: also called hS1; recombinant hSI; not shown: poly-histidine tag (pET vector) at the NH2-terminal end
T3 sequence (P14410 272-667, one chain of several): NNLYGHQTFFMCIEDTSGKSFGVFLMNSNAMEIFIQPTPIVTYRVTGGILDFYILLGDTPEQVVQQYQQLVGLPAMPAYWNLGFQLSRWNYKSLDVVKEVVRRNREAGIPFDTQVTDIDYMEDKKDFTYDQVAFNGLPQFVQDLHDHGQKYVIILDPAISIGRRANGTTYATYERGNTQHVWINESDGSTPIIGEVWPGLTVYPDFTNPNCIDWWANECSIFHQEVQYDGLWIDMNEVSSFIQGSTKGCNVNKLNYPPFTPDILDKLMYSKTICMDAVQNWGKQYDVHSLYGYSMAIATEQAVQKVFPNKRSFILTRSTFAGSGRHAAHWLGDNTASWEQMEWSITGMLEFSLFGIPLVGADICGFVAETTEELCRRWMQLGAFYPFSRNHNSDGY
Procedure: as §1
With B8 the OD was 0.478 OD. B9 was tested, and the OD was 0.845 OD. With B10 the OD was 0.399 OD.

Source: US6703362 (CYTOGEN, dated 2004)
